T1: CD123 (target of Example 19) (Homo sapiens (Human), UniProt P26951 19-305, limits assumed)
T1 sequence: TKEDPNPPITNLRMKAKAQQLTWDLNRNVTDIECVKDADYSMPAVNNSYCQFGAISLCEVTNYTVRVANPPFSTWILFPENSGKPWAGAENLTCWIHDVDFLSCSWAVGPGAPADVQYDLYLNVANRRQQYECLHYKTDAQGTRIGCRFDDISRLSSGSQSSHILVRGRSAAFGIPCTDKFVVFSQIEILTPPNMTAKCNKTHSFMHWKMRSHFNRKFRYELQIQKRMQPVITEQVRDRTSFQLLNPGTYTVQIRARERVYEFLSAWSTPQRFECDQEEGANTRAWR


Target: T1, CD123 (target of Example 19)
Assay: library selection; assay not described

| Binder | binding result |
| --- | --- |
| SEQ ID NO 113 (designed binder) MGSWFEFWDRLDAIEDRLYALGGSEAELAAFEKEIAAFESELQAYKGKGNPEVEELRDEAAWIRGTLQAYRHN | binds |
| SEQ ID NO 118 (designed binder) MGSWFEFWGRLEAIESRLKALGGSEAELAAFEKEIAAFESELQAYKGKGNPEVEELREHAAWIRAYLQAYRHN | binds |
| SEQ ID NO 60 (designed binder) MGSWIEFEDRLDAITDRLWALGGSEAELAEFEHQIAFFEEDLQWYKGKGNPEVEALHMEAEAIMEELGAYRHN | binds |
| SEQ ID NO 61 (designed binder) MGSWVEFEYRLDAISDRLWALGGSEAELAFFENEIASFESDLQFYKGKGNPEVEALMFEAEAIDDELHAYRHN | binds |
| SEQ ID NO 62 (designed binder) MGSWYEFEDRLAAIEARLWALGGSEAELADFEEEIAYFEHGLQWYKGKGNPEVEALESEAMAIIDELHAYRHN | binds |
| SEQ ID NO 111 (designed binder) MGSWVEFENRLEAIENRLWALGGSEAELAAFEKEIAAFESELQAYKGKGNPEVEWLREDAAQIRMMLQAYRHN | binds |
| SEQ ID NO 108 (designed binder) MGSWYEFENRLGAIGDRLWALGGSEAELAAFEKEIAAFESELQAYKGKGNPEVEWLRDEAAYIRAVLQAYRHN | binds |
| SEQ ID NO 122 (designed binder) MGSWIEFEDRLEAIEDRLFALGGSEAELAAFEKEIAAFESELQAYKGKGNPEVEWLRQEAAEIRLMLQAYRHN | binds |
| SEQ ID NO 120 (designed binder) MGSWYEFENRLEAIEERLWALGGSEAELAAFEKEIAAFESELQAYKGKGNPEVEMLREEAAFIRDWLQAYRHN | binds |
| SEQ ID NO 115 (designed binder) MGSWWEFEMRLEAIEDRLFALGGSEAELAAFEKEIAAFESELQAYKGKGNPEVESLRWEAAFIRDILQAYRHN | binds |
| SEQ ID NO 112 (designed binder) MGSWYEFWDRLEAIDDRLWALGGSEAELAAFEKEIAAFESELQAYKGKGNPEVEALRQEAAWIREELQAYRHN | binds |
| SEQ ID NO 119 (designed binder) MGSWTEFSIRLEAIYDRLVALGGSEAELAAFEKEIAAFESELQAYKGKGNPEVEVLRTYAANIRHELQAYRHN | binds |
| SEQ ID NO 109 (designed binder) MGSWNEFYDRLSAIYFRLQALGGSEAELAAFEKEIAAFESELQAYKGKGNPEVEHLRWYAADIRMILQAYRHN | binds |

Now from value to binder:

| binding result | Binder |
| --- | --- |
| binds | SEQ ID NO 121 (designed binder) MGSWYEFVIRLEAIEDRLWALGGSEAELAAFEKEIAAFESELQAYKGKGNPEVEVLRWYAADIRHELQAYRHN |
| binds | SEQ ID NO 127 (designed binder) MGSWYEFSMRLDAIYDRLMALGGSEAELAAFEKEIAAFESELQAYKGKGNPEVEQLRGYAANIRNELQAYRHN |
| binds | SEQ ID NO 126 (designed binder) MGSWHEFGVRLDAIYDRLMALGGSEAELAAFEKEIAAFESELQAYKGKGNPEVEFLRQAAANIRSELQAYRHN |
| binds | SEQ ID NO 106 (designed binder) MGSWHEFDQRLWAIEERLWALGGSEAELAAFEKEIAAFESELQAYKGKGNPEVETLRLYAALIRHDLQAYRHN |
| binds | SEQ ID NO 107 (designed binder) MGSWIEFESRLWAIEDRLLALGGSEAELAAFEKEIAAFESELQAYKGKGNPEVEFLRLEAADIREDLQAYRHN |
| binds | SEQ ID NO 117 (designed binder) MGSWYEFYNRLSAIYARLQALGGSEAELAAFEKEIAAFESELQAYKGKGNPEVEDLRWYAADIRYMLQAYRHN |
| binds | SEQ ID NO 116 (designed binder) MGSWVEFYDRLHAIYFRLLALGGSEAELAAFEKEIAAFESELQAYKGKGNPEVEDLRWYAADIRLVLQAYRHN |
| binds | SEQ ID NO 65 (designed binder) MGSWEEFHERLDAIDERLEALGGSEAELAFFEDDIASFEDWLQWYKGKGNPEVEALSREADAINFELEAYRHN |
| binds | SEQ ID NO 64 (designed binder) MGSWWEFEDRLWAIDRRLMALGGSEAELAVFEQMIAHFEQILQVYKGKGNPEVEALHFEAHAIGMELAAYRHN |
| binds | SEQ ID NO 63 (designed binder) MGSWYEFEERLDAIEDRLIALGGSEAELAIFEDIIAFFEQDLQYYKGKGNPEVEALEMEAEAISIELDAYRHN |

Target: T2, DR5-Fc (UniProt O14763 56-182, limits assumed)
T2 construct: purified recombinant target-Fc protein; not shown: Fc
T2 sequence (O14763 56-182 limits assumed): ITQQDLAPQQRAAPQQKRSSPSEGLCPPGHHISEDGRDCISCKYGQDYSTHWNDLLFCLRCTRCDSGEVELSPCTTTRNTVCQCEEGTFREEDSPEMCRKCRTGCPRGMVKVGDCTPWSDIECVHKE
Assay: phage ELISA, target-Fc against non-specific control
Experimental: Selections were also performed using F1, F2, F3, C1 & C2 trinucleotide phosphoramidite libraries. In most cases, libraries were pooled prior to use in selection. By combining equal volumes of the individual libraries, Pool F (libraries F1, F2 and F3) and Pool C (libraries C1 and C2) were generated. These libraries were used in selections for DBDpp binders to 4-1BB/CD137 as well as a larger panel of purified recombinant “target”-Fc proteins, including CD47, CTLA4, DR5, KIR, LAG3, OX40, PD1, PD-L1 and TIM3. (Many of these targets are considered immuno-regulatory factors (Pardoll et al., Nat. Rev. Cancer 12:252-264 (2012)). After incubation of the target with the pools of DBDpp phage libraries, bound phage-target complexes were captured and separated from unbound phage with protein A beads (target proteins were Fc fusions). After three rounds of selection, rescued phage clones were screened by ELISA for binding to the selected target.
For each target, approximately 90 DBDpp phage clones were screened by ELISA for binding to the target protein and as well as a non-specific control (e.g., IgG1-Fc). […] In some instances, for the ELISA screening plate in which the majority of DBDpp clones were positive, the entire plate was sequenced.

| ELISA ratio (target to background) [ratio] | Binder |
| --- | --- |
| 12.1 | SEQ ID NO 28 (designed binder) MGSWVYFKEHLAWIKTELEALGGSEAELAHFEHSIADFEMSLQFYKGKGNPEVEALRKEAAAIRDELQAYRHN |
| 13 | SEQ ID NO 26 (designed binder) MGSWNYFKDHLAWIKNSLEALGGSEAELAHFETAIASFERQLQEYKGKGNPEVEALRKEAAAIRDELQAYRHN |
| 11.8 | SEQ ID NO 29 (designed binder) MGSWFYFKQHLAWIKSYLEALGGSEAELAHFERAIAAFEQHLQMYKGKGNPEVEALRKEAAAIRDELQAYRHN |
| 12.3 | SEQ ID NO 27 (designed binder) MGSWLYFKEHLAHIKAWLEALGGSEAELAHFELAIADFEYHLQEYKGKGNPEVEALRKEAAAIRDELQAYRHN |
| 11.4 | SEQ ID NO 30 (designed binder) MGSWHYFKDHLAEIKGLLEALGGSEAELAHFEMAIADFEHNLQYYKGKGNPEVEALRKEAAAIRDELQAYRHN |
| 10.8 | SEQ ID NO 31 (designed binder) MGSWHYFKGHLAEIKNHLEALGGSEAELAHFERAIAAFERSLQWYKGKGNPEVEALRKEAAAIRDELQAYRHN |
| 10.3 | SEQ ID NO 33 (designed binder) MGSWTYFKEHLAEIKYMLEALGGSEAELAHFEVAIADFEKMLQYYKGKGNPEVEALRKEAAAIRDELQAYRHN |
| 9.75 | SEQ ID NO 34 (designed binder) MGSWWLFKDHLAEIKTALEALGGSEAELAHFEMAIAAFEKQLQYYKGKGNPEVEALRKEAAAIRDELQAYRHN |

Reference: patent US20180251563A1 (SUBDOMAIN, published 2018)
